Experimental findings from US20030175925A1, “Nicotinamide ribonucleoside kinase” (priority 2001, published 2003) are described below.

Bounds are passed on as bounds.

Assay [1] in a line: discontinuous spectral NMNATse assay coupled to alcohol dehydrogenase (NAD to NADH, 340 nm). It is filed as biochemical. The settings on record: specific activity; 37° C., pH 7.5, 2 mM ATP, NMN substrate; 1 unit = 1 micromole NADH per minute. Here is the method: The discontinuous spectral NMNATse assay procedure (used for both human NadD2_HS and NadR) coupled to alcohol dehydrogenase (ADH) catalyzed conversion of NAD to NADH was adapted from Balducci, E., et al., Biochem. J., 310:395-400 (1995), as described in U.S. Ser. No. 09/550,398, filed Apr. 14, 2000. The assay was performed in disposable UV-transparent plastic cuvettes in a 6-cuvette autosampler of Beckman DU-640 set at 37° C. The 500 μL mixture contained 100 mM HEPES, pH 7.5, 115 mM ethanol, 40 mM semicarbazide, 2 mM ATP, 3 units of ADH (Sigma), and 0.2-2 milliunits of NMNATse (0.1-10 μg depending on specific activity). A reaction was initiated by adding 10 μL of 50 mM NMN, and monitored at 340 nm over 20 minutes. An extinction coefficient of NADH equal to 6.22 mM^−1 cm^−1 was used for rate calculations. One unit of enzyme was defined as a quantity capable of producing 1 micromole of NADH per minute.

Assay [2] is described as follows: discontinuous spectral NRKse assay coupled to NadD2_HS (NMNATse) and ADH. Type of assay: biochemical. The settings on record: for RATIO: ratio NmR Kinase / NMNATse specific activity; for NmR Kinase: specific activity, 37° C., pH 8.0, 0.8 mM NmR, ATP, 1 unit = 1 micromole NADH per minute; for NRKse and NMNATse activity (summary in words): NMNATse and NRKse assays together. Here is the method: The discontinuous spectral NRKse assay was based on enzymatic coupling of NmR→NMN conversion to production of NAD, catalyzed by excess amounts of recombinant purified NadD2_HS enzyme (NMNATse). NAD production was further coupled to NADH conversion by ADH, as in the NMNATse assay described above.
The assay was performed in disposable UV-transparent plastic cuvettes in a 6-cuvette autosampler of Beckman DU-640 set at 37° C. The 500 μL mixture contained 100 mM Tris/HCl pH 8.0, 115 mM ethanol, 40 mM semicarbazide, 0.8 mM NmR, 0.15 units of NadD2_HS, 3 units of ADH (Sigma), and 0.2-2 milliunits of NRKse (0.2-2 μg, depending on the specific activity). A reaction was initiated by adding 50 μL of 50 mM ATP, and monitored at 340 nm over 20 minutes. An extinction coefficient of NADH equal to 6.22 mM^−1 cm^−1 was used for rate calculations. One unit of enzyme was defined as a quantity capable of producing 1 micromole of NADH per minute.

B1: NadR H. influenzae; N-terminal domain: N-terminal domain of NadR from H. influenzae, amino acids 38-212, only NMNATse domain (protein, UniProt P44308 38-212, looked up, fragment)
chain: YNKHTQFLRYQEQIMSKTKEKKVGVIFGKFYPVHTGHINMIYEAFSKVDELHVIVCSDTVRDLKLFYDSKMKRMPTVQDRLRWMQQIFKYQKNQIFIHHLVEDGIPSYPNGWQSWSEAVKTLFHEKHFEPSIVFSSEPQDKAPYEKYLGLEVSLVDPDRTFFNVSATKIRTTPFQ
As to B1, in assay [1], the NMNATse is listed as 3 Un/mg. In assay [2], the RATIO was below 0.001 and the “NmR Kinase” value is listed as below 0.003 Un/mg.

B2: NadR Salmonella: full-size NadR protein from Salmonella typhimurium, all three domains (HTH, NMNATse, NRKse), His-tagged recombinant (protein, UniProt P24518 1-410, looked up)
chain: MSSFDYLKTAIKQQGCTLQQVADASGMTKGYLSQLLNAKIKSPSAQKLEALHRFLGLEFPRRQKNIGVVFGKFYPLHTGHIYLIQRACSQVDELHIIMGYDDTRDRGLFEDSAMSQQPTVSDRLRWLLQTFKYQKNIRIHAFNEEGMEPYPHGWDVWSNGIKAFMAEKGIQPSWIYTSEEADAPQYLEHLGIETVLVDPERTFMNISGAQIRENPFRYWEYIPTEVKPFFVRTVAILGGESSGKSTLVNKLANIFNTTSAWEYGRDYVFSHLGGDEMALQYSDYDKIALGHAQYIDFAVKYANKVAFIDTDFVTTQAFCKKYEGREHPFVQALIDEYRFDLVILLENNTPWVADGLRSLGSSVDRKAFQNLLVEMLKENNIEFVHVKEADYDGRFLRCVELVKEMMGEQG
modifications: full-length His tag
notes: full-size NadR protein from Salmonella typhimurium, all three domains (HTH, NMNATse, NRKse), His-tagged recombinant
B2: the NMNATse in assay [1] turned out to be 0.04 Un/mg. Further, in assay [2], the “NRKse and NMNATse activity (summary in words)” value is “possess NRKse activity in addition to NMNATse activity”; the RATIO is 125; the “NmR Kinase” value is 5 Un/mg.

B3: NadR H. influenzae: N-truncated NadR protein from H. influenzae, amino acids 38-407, both NMNATse and NRKse domains (protein, UniProt P44308 38-407, looked up, fragment)
chain: YNKHTQFLRYQEQIMSKTKEKKVGVIFGKFYPVHTGHINMIYEAFSKVDELHVIVCSDTVRDLKLFYDSKMKRMPTVQDRLRWMQQIFKYQKNQIFIHHLVEDGIPSYPNGWQSWSEAVKTLFHEKHFEPSIVFSSEPQDKAPYEKYLGLEVSLVDPDRTFFNVSATKIRTTPFQYWKFIPKEARPFFAKTVAILGGESSGKSVLVNKLAAVFNTTSAWEYGREFVFEKLGGDEQAMQYSDYPQMALGHQRYIDYAVRHSHKIAFIDTDFITTQAFCIQYEGKAHPFLDSMIKEYPFDVTILLKNNTEWVDDGLRSLGSQKQRQQFQQLLKKLLDKYKVPYIEIESPSYLDRYNQVKAVIEKVLNEEEIS
Take B3: in assay [1], the NMNATse stood at 0.9 Un/mg. In assay [2], the “NRKse and NMNATse activity (summary in words)” value is listed as “possess NRKse activity in addition to NMNATse activity”; the RATIO worked out at 0.02; the “NmR Kinase” value is 0.02 Un/mg.
